Here are results for four substances from patent US20240409637A1.

Experiment [1] addresses human CD8 alpha and beta subunit on JRT3.T3/AP1-Luc/CD28/CD8AB/1G4AB clone 18 reporter T cells (human) (UniProt P01732). The experiment can be described thus: cell-based or functional assay.
For experiment [2], the target named is human CD8 on cells (primary human CD8 positive T cells; T cells of mice expressing hCD8; human PBMC-derived lymphocytes) (human) (UniProt P01732). As to the kind of experiment: cell-based or functional assay.
Sequence of human CD8 on cells (primary human CD8 positive T cells; T cells of mice expressing hCD8; human PBMC-derived lymphocytes) (human) (P01732 22-235, chain 1 of 2): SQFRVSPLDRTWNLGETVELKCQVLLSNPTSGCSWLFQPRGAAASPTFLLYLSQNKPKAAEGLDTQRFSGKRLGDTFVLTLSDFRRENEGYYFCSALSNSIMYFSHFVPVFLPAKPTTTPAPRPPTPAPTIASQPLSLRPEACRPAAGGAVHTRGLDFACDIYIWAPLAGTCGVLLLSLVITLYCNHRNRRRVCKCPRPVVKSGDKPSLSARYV
Sequence of human CD8 on cells (primary human CD8 positive T cells; T cells of mice expressing hCD8; human PBMC-derived lymphocytes) (human) (chain, as listed by the source, chain 2 of 2): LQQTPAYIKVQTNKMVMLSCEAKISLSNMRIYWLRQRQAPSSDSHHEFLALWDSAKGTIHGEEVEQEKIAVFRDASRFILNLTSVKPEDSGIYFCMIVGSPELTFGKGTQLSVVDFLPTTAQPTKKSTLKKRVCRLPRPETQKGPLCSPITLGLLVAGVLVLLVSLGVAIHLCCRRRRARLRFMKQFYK

Sequence of human CD8 alpha and beta subunit on JRT3.T3/AP1-Luc/CD28/CD8AB/1G4AB clone 18 reporter T cells (human) (P01732 22-235, chain 1 of 2): as the sequence (P01732 22-235, chain 1 of 2) above
Sequence of human CD8 alpha and beta subunit on JRT3.T3/AP1-Luc/CD28/CD8AB/1G4AB clone 18 reporter T cells (human) (P10966 22-210, chain 2 of 2, further chain): as the sequence (chain, as listed by the source, chain 2 of 2) above

In experiment [1], “Clone RPA-T8 (commercially available anti-CD8 antibody)” had an IC50 [M], reduction of AP1-luciferase activity in CD8 T cell/APC luciferase assay of 1.61e-10 M and a Reduction of T cell response at 100 nM [%], CD8 T cell/APC luciferase assay of 97.9%.
For Isotype 1 (antibody), in experiment [1], the Reduction of T cell response at 100 nM [%], CD8 T cell/APC luciferase assay is 7.4%.
As to Isotype 2 (antibody), the Reduction of T cell response at 100 nM [%], CD8 T cell/APC luciferase assay in experiment [1] amounted to 6.2%.
For “isotype control antibody (irrelevant isotype matched antibody)”, in experiment [2], the Percent Inhibition of IFNγ Production, one-way MLR Reaction 1, 0.5 nM antibody worked out at 0.5%; the Percent Inhibition of IFNγ Production, one-way MLR Reaction 1, 5 nM antibody turned out to be 3.9%; the Percent Inhibition of IFNγ Production, one-way MLR Reaction 1, 50 nM antibody is -6.6%; the Percent Inhibition of IFNγ Production, one-way MLR Reaction 2, 0.5 nM antibody was determined as 2.3%. In experiment [2], the Percent Inhibition of IFNγ Production, one-way MLR Reaction 2, 5 nM antibody amounted to 3.4% and the Percent Inhibition of IFNγ Production, one-way MLR Reaction 2, 50 nM antibody amounted to 25.4%.
